# Experimental data reported in the supplement of paper PMC10567573.
# B1: NCK2 (parent)
# chain: YTGPSSSGRFAGREWYYGNVTRHQ
# B2: SPOPL (parent)
# chain: PDDKLTLFCEVSVVQDSVNISGHT
# Variants of: B1
# Assay: protein stability index of a GFP-peptide fusion (GPS, HEK-293T) (PSI 1-6); higher = more stable
# Conditions: c terminus: a fixed tail appended
# 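Further: lentivirally expressed fusions sorted by FACS into six bins by GFP to DsRed ratio, PSI derived from sequencing read proportions per bin multiplied by bin number.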
row,Variant,protein stability index
1,T2A,2.62
2,T2F,2.04
3,T2G,2.44
4,T2E,2.82
5,Y16V,1.5
6,Y16T,2.45
7,Y16A,2.24
8,Y16K,2.06
9,S7T,2.68
10,G3L,1.81
11,G3N,2.17
12,G3P,1.56
13,G3E,2.34
14,G3T,1.54
15,G3Y,2.13
16,G8E,2.32
17,G8T,1.87
18,G8H,1.51
19,G8R,2.3
20,G8M,1.68
21,G8I,1.59
22,S6Q,2.22

row,Variant,protein stability index
1,S6A,2.09
2,P4S,1.79
3,P4W,1.71
4,P4Q,1.26
5,P4T,1.9
6,R9Q,1.81
7,R9H,1.45
8,R9K,1.46
9,R9C,2.09
10,R9S,1.38
11,W15R,2.35
12,W15Q,2.36
13,W15D,2.83
14,W15G,2.82
15,T21E,2.05
16,T21A,1.84
17,T21I,1.87
18,A11V,1.62
19,A11I,1.55
20,A11K,1.32
21,A11F,4.19
22,A11M,1.48

row,Variant,protein stability index
1,A11G,2.44
2,H23T,1.46
3,H23M,1.56
4,H23D,2.52
5,H23F,1.79
6,N19C,1.55
7,N19V,1.61
8,N19S,1.44
9,N19E,1.53
10,N19Y,1.91
11,N19W,3.18
12,F10D,1.93
13,F10S,2.11
14,F10L,1.44
15,Q24Y,1.72
16,Q24P,2.07
17,Q24I,2.01
18,Q24F,1.59
19,Q24G,1.56
20,Q24K,2.42
21,Q24E,1.41
22,Q24H,1.85

row,Variant,protein stability index
1,S5K,1.7
2,S5F,2.77
3,S5V,1.4
4,S5A,2.6
5,S5Y,3.23
6,R22H,1.33
7,R22D,1.65
8,R22A,2
9,R22N,2.35
10,G18K,2.64
11,G18F,1.6
12,G18M,1.55
13,G18V,2.68
14,R13L,1.7
15,R13Q,2.44
16,R13E,2
17,R13V,2.44
18,G12W,1.9
19,G12V,1.84
20,Y1F,1.47
21,Y1V,2.93
22,Y1G,2.46

row,Variant,protein stability index
1,Y1E,3.28
2,Y1R,2.55
3,Y1L,2.3
4,Y1W,2.66
5,Y1N,2.73
6,Y17R,2.19
7,Y17L,1.58
8,Y17A,2.11
9,Y17M,1.87
10,Y17Q,1.97
11,V20Y,2.44
12,V20C,2.13
13,V20K,2.2
14,V20E,1.67
15,E14S,1.67
16,E14N,1.78
17,E14K,2.03
18,E14C,3.32
19,E14G,1.69

# Variants of: B2
# Assay: as above
# Conditions: c terminus: a fixed tail appended
row,Variant,protein stability index
1,V14L,1.71
2,V14C,1.66
3,V14W,1.81
4,V14I,2.56
5,V14S,2.07
6,V14G,2.54
7,V14Q,2.7
8,V14D,3.07
9,V14E,3.34
10,V14T,1.86
11,V14Y,1.67
12,V14M,2.01
13,V14K,2.7
14,D16E,1.33
15,D16T,1.53
16,D16K,1.66
17,D16V,3.7
18,D16A,2.28
19,D16S,2.32
20,D16N,1.8
21,D16W,2.43
22,D16P,1.49
23,L5M,2.21
24,L5N,3.95
25,L5K,3.82
26,L5W,1.26

row,Variant,protein stability index
1,L5H,3.96
2,L5Q,3.73
3,L5T,3.33
4,L5F,1.52
5,L5A,3.66
6,V18F,1.73
7,V18M,2.05
8,V18N,2.99
9,V18R,2.03
10,V18I,2.09
11,V18Q,3.27
12,V18Y,1.77
13,V18H,2.6
14,V18G,2.83
15,V18T,2.81
16,V18P,2.7
17,V18L,1.57
18,V18E,3.04
19,I20G,3.21
20,I20C,2.86
21,I20P,2.59
22,I20E,3.42
23,I20H,3.43
24,I20M,1.78
25,I20F,1.31
26,I20N,3.08

row,Variant,protein stability index
1,I20W,2.04
2,I20Y,2.18
3,D3R,2.05
4,D3I,2.06
5,D3C,1.75
6,D3N,2.44
7,D3M,1.93
8,D3W,1.73
9,D3L,2.11
10,D3V,1.8
11,D3S,1.79
12,G22A,1.08
13,G22H,1.66
14,G22N,1.98
15,G22K,2.1
16,G22T,3.74
17,G22D,2.87
18,G22E,3.28
19,S21R,2.47
20,S21M,2.48
21,S21I,3.25
22,S21D,3.2
23,S21T,3.16
24,H23T,2.44
25,H23R,2.71
26,H23I,2.41

row,Variant,protein stability index
1,H23K,2.21
2,H23Q,2.3
3,H23G,2.01
4,H23P,2.26
5,H23D,3.06
6,H23N,2.6
7,C9S,4.52
8,C9I,3.05
9,C9V,3.85
10,C9P,4.91
11,C9R,4.54
12,C9A,3.47
13,C9D,4.71
14,C9W,2.62
15,C9M,2.13
16,C9Y,2.07
17,P1I,3.71
18,P1R,2.1
19,P1N,2.42
20,P1H,2.18
21,P1Q,2.02
22,P1C,1.93
23,P1A,1.81
24,P1D,2.17
25,P1E,2.2
26,P1S,2.05

row,Variant,protein stability index
1,P1G,1.99
2,P1V,1.36
3,S12I,2.11
4,S12Q,1.73
5,S12A,3.08
6,S12H,1.71
7,S12V,2.53
8,S12K,2
9,S12N,2.79
10,S12W,1.98
11,S17E,2.99
12,S17G,2
13,S17V,1.03
14,S17H,1.38
15,S17R,1.73
16,E10S,1.58
17,E10M,3.02
18,E10G,2.52
19,E10T,3.3
20,E10D,2.76
21,E10Q,2.27
22,E10H,2.12
23,E10C,2.81
24,E10P,3.44
25,E10A,2.48
26,Q15S,2.44

row,Variant,protein stability index
1,Q15H,1.28
2,Q15A,1.71
3,Q15R,1.44
4,Q15T,2.31
5,Q15F,3.28
6,T24K,3.16
7,T24M,2.39
8,T24E,3.45
9,T24Q,2.06
10,T24S,2.38
11,T24H,2.4
12,T24N,2.97
13,T24A,1.54
14,T24G,1.51
15,T24P,3.77
16,V13C,2.57
17,V13G,4.14
18,V13F,2.03
19,V13N,4.03
20,V13P,3.99
21,V13T,3.79
22,V13I,2.51
23,V13K,3.11
24,V13Y,1.94
25,V13A,3.35
26,V11E,4.81

row,Variant,protein stability index
1,V11W,2.14
2,V11R,3.67
3,V11L,1.93
4,V11N,4.78
5,V11M,2.77
6,V11S,4.47
7,V11Y,2.46
8,V11I,1.95
9,V11T,4.26
10,V11F,2.61
11,K4N,1.98
12,K4P,2.27
13,K4F,2.19
14,K4S,2.23
15,K4L,2.39
16,K4H,1.95
17,K4E,2.32
18,K4G,2.12
19,K4D,2.81
20,K4Y,2.26
21,K4T,1.53
22,K4I,1.48
23,N19C,1.05
24,N19I,1.39
25,N19G,1.74
26,N19K,1.92

row,Variant,protein stability index
1,N19D,2.41
2,N19Q,1.39
3,N19V,2.65
4,D2L,1.46
5,D2N,1.44
6,D2K,2.02
7,D2P,2.71
8,D2G,2.44
9,D2C,1.62
10,D2I,2.02
11,D2Y,1.38
12,D2H,2.04
13,D2M,1.61
14,D2Q,3.11
15,D2W,3.07
16,D2V,3.9
17,D2E,2.29
18,D2R,2.53
19,D2T,1.38
20,T6D,2.84
21,T6H,2.4
22,T6Y,1.25
23,T6A,2.15
24,T6F,2.98
25,T6R,2.02
26,L7C,2.72

row,Variant,protein stability index
1,L7F,1.81
2,L7Y,2.72
3,L7K,4.78
4,L7T,3.88
5,L7H,3.79
6,L7N,4.32
7,L7W,1.75
8,L7G,4.28
9,L7R,3.94
10,L7A,4.2
11,F8Y,2.08
12,F8G,4.82
13,F8S,3.96
14,F8E,4.39
15,F8W,1.62
16,F8M,2.86
17,F8D,4.94
18,F8P,4.79
19,F8A,3.65
